Results published in patent publication US20210032294A1, “MODIFIED PlySs2 LYSINS AND USES THEREOF” (CONTRAFECT CORPORATION, priority 2018, published 2021).
Entries after “also recorded” stand apart in the source; their conditions may differ.

Key:
bacterial inoculum = test: Thermal stability: in vitro lytic assay after 30 min heating; type: cell-based
Protocol: Thermal stability was assessed by incubating the lysin polypeptides at a fixed concentration of 128 μg/mL in Tris buffer pH 8.0 for 30 minutes at various elevated temperatures (within the range of about 30° C. to 60° C.) prior to assessing activity. The samples were then cooled for 2 minutes on ice and activity was then assessed by an in vitro lytic assay by exposing a bacterial inoculum (OD600 ˜0.5-1.2) in Tris buffer to a 2-fold dilution series of each sample (diluted from 128-0.25 μg/mL across the x-axis of a 96 well microtiter plate). The loss of optical density was followed for 15 minute at room temperature, and the specific activity was determined based on the enzyme concentration enabling a 50% loss of optical density at 15 minutes. The enzyme activities of each variant were compared to the wild-type, CF-301 enzyme (GMT-grade PlySs2 protein) to calculate the % of Wild-Type Activity over a range of temperatures.
The thermal stability of wild-type, CF-301 was arbitrarily set at 100. The results for exemplary modified lysin polypeptides are set forth below in Table 5 at a single temperature of 37° C.:
In another experiment, the thermal stability of modified lysin polypeptides was assessed at different temperatures and compared with that of wild-type, CF-301 (set at 100).

MRSA strain MW2 = test: Serial passage resistance assay; type: cell-based, Staphylococcus aureus
Protocol: An analysis of bacterial resistance was performed using MRSA strain MW2 over 18 days of serial passage in the presence of a pp296 dilution series and an antibiotic dilution series in presence and absence of sub-MIC amounts of pp296. Briefly, the broth microdilution MIC format was used in which 2-fold dilutions ranges of pp296 alone or antibiotic in the presence and absence of a fixed sub-MIC amount of pp296 was cultured with bacteria (5×10^5 CFU/ml starting concentration) in MHB for 20 hours at 37° C. The well with the highest concentration of the modified lysin polypeptide in which bacterial growth was seen was then used as the inoculum for the next day's passage, and the process was repeated over a […]. The MIC at each daily time-point was recorded, and resistance was measured as a step-wise increase in MIC. […] The results are depicted graphically in FIGS. 3A-3C.

[1] = system: 1-day old biofilms formed by MSSA isolates; test: Minimum Biofilm Eradication Concentration (MBEC), MSSA biofilms; type: cell-based, Staphylococcus aureus; conditions: 24 hours treatment
Protocol: (§1) In some embodiments, the present modified lysin polypeptides are capable of reducing a biofilm. […] Biofilms are then washed and treated with e.g., a 2-fold dilution series of the lysin in TSBg at e.g., 37° C. for 24 hours. After treatment, wells are washed, air-dried at e.g., 37° C. and stained with e.g., 0.05% crystal violet for 10 minutes. After staining, the biofilms are destained in e.g., 33% acetic acid and the OD600 of e.g., extracted crystal violet is determined. The MBEC of each sample is the minimum lysin concentration required to remove >95% of the biofilm biomass assessed by crystal violet quantitation.
(§2) The anti-biofilm activity of pp296 was determined against 1-day old biofilms formed by 17 MSSA and 20 MRSA isolates in a 96-well broth microdilution format. The Minimum Biofilm Eradication Concentration (MBEC) values for pp296, compared to wild-type PlySs2 (CF-301), were determined by the following standard methodology. Bacteria were suspended in PBS (0.5 McFarland Units), diluted 1:100 in TSBg (66% tryptic soy broth, 0.2% glucose), added as 0.15 mL aliquots to 96-well polystyrene microplates, and incubated for 24 hours at 37° C. Biofilms were then washed and treated with a 2-fold dilution series of CF-301 or pp296 in TSBg at 37° C. for 24 hours. All samples were examined in triplicate. After treatment, wells were washed, air-dried at 37° C., and stained with 0.05% crystal violet for 10 min The loss of biofilm biomass was assessed visually, and crystal violet was quantitated by solubilization in 33% (vol/vol) acetic acid. The optical density of 600 nm (OD600) was determined using a SpectraMax M3 Multimode microplate reader. The MBEC of each sample was the minimum lysin concentration required to remove >95% of the biofilm biomass assessed by crystal violet quantitation.

[2] = system: 1-day old biofilms formed by MRSA isolates; test: Minimum Biofilm Eradication Concentration (MBEC), MRSA biofilms; type: cell-based, Staphylococcus aureus; conditions: 24 hours treatment
Protocol: as §1, §2

[3] = system: S. aureus isolate CFS-860; test: Mouse neutropenic thigh infection (MNTI) model; type: in vivo, Staphylococcus aureus
Protocol: The efficacy of four modified lysin polypeptides was compared to wild-type PlySs2 in a dose response (0-60 mg/kg) assay using a mouse neutropenic thigh infection (MNTI) model.
Bacterial inoculum was generated by allowing bacterial cells to grow to exponential phase in MHB until they reached an optical density (OD) of about 0.5 at 600 nm. The bacterial cells were thoroughly washed, resuspended in 0.9% sodium chloride USP, and diluted to an equivalent of 3.9×10^8 colony forming units (CFU)/mL. Cells were further diluted as described below in 0.9% sodium chloride USP and maintained on wet ice.
Neutropenia was induced in female BALB/cByJ mice (5-7 weeks, Jackson Laboratories) by intraperitoneal (ip) administration of 150 mg/kg and 100 mg/kg of cyclophosphamide 4 and 1 days prior to inoculation of bacteria, respectively. Bacterial inoculum (S. aureus isolate CFS-860, 100 μl of 10^7 CFU/ml solution) was injected intramuscularly (IM) into both posterior thighs of each mouse. […] At 2 hours post-inoculation (Early Control) and 24 hours post-treatment initiation, animals were euthanized (CO2 asphyxiation), and the thighs were aseptically removed. Each thigh was weighed, placed into 4 ml sterile saline and homogenized in 7 ml lysing tubes using a Precellys24 high-throughput tissue homogenizer (Bertin Corp, Rockville, Md.). Dilutions of homogenate were plated on tryptic soy blood agar plates (Becton Dickinson) and incubated at 37° C. overnight in a CO2 incubator. Bacterial burden was enumerated and expressed as log 10 CFU/g of thigh weight and compared to control animals harvested at 2 hours post infection (Early Control) and animals treated with vehicle (Late Control).
The data representing mouse thigh bacterial burden are depicted in FIG. 2. The upper dot on the y-axis is vehicle alone, and the lower dot on the y-axis is the Early Control. pp1149 is in fact also a wild-type lysin over-expressed and purified in the laboratory along with the other modified lysin polypeptides and used as an additional positive control.

B1: pp296: Modified PlySs2 lysin, SEQ ID NO: 6: L92W, V104S, V128T, Y137S, Y164K, N184D, S198Q (protein)
chain: MTTVNEALNNVRAQVGSGVSVGNGECYALASWYERMISPDATVGLGAGVGWVSGAIGDTISAKNIGSSYNWQANGWTVSTSGPFKAGQIVTWGATPGNPYGHVSIVEAVDGDRLTILEQNYGGKRYPTRNYYSAASSRQQVVHYITPPGTVAQSAPNLAGSRSKRETGTMTVTVDALNVRRAPDTSGEIVAVYKRGEQFDYDTAIIDVNGYAWVSYIGGSGKRNYVATGATKDGKRFGNAWGTFK
% Wild-Type Activity at 37° C. (bacterial inoculum; 30 minutes at 37° C., 128 μg/mL in Tris buffer pH 8.0, CF-301 set at 100): 205%
% of CF-301 wild-type, 37° C. (bacterial inoculum; 30 minutes at 37° C., another experiment): 204.6%
% of CF-301 wild-type, 40° C. (bacterial inoculum; 30 minutes at 40° C.): 243.1%
% of CF-301 wild-type, 42° C. (bacterial inoculum; 30 minutes at 42° C.): 141.2%
% of CF-301 wild-type, 45° C. (bacterial inoculum; 30 minutes at 45° C.): 40.1%
% of CF-301 wild-type, 48° C. (bacterial inoculum; 30 minutes at 48° C.): 0.0%
% of CF-301 wild-type, 50° C. (bacterial inoculum; 30 minutes at 50° C.): 0.0%
Increase in MIC of DAP or VAN / appearance of antibiotic resistance (MRSA strain MW2; antibiotic plus fixed sub-MIC amount of lysin): no or very little increase; also recorded: suppressed the appearance of daptomycin and vancomycin resistance
Resistance to the lysin (increase in MIC on serial passage) (MRSA strain MW2; lysin alone, three replicate lineages, 21-26 day period): no or very little increase; also recorded: no resistance to pp296 was observed
Amount needed to suppress DAP resistance (MRSA strain MW2; with daptomycin, 1/16th the MIC for pp296 alone): 0.125 µg/mL
Amount needed to suppress development of VAN resistance (MRSA strain MW2; with vancomycin, 1/8th the MIC for pp296 alone): 0.25 µg/mL
MBEC50 [1]: 0.063 µg/mL
MBEC90 [1]: 0.25 µg/mL
MBEC Range [1]: 0.01 to 1 µg/mL
MBEC50 [2]: 0.031 µg/mL
MBEC90 [2]: 0.06 µg/mL
MBEC Range [2]: 0.01 to 0.25 µg/mL
Performance in MNTI at lower doses ([3]; 0.5 mg/kg): performed comparably to wild type
Bactericidal efficacy (thigh bacterial burden) versus wild type ([3]; neutropenic BALB/cByJ mice, intravenous, dose response, 24 hours): activity comparable to wild-type PlySs2 lysin
Bactericidal efficacy at the lowest dose used ([3]; neutropenic mice, intravenous, 5 mg/kg): comparable to that of wild-type PlySs2 lysin
